Measurements from patent publication US20250340902A1, “GENE THERAPY FOR BVES-RELATED DISORDERS” (OHIO STATE INNOVATION FOUNDATION, priority 2022, published 2025).

What was measured:
Test in all cases: anti-HA co-IP from muscle, MS; CTRL 0
[1] = target: 40S ribosomal protein S27 (Mus musculus) (UniProt Q6ZWU9)
[2] = target: ATP-binding cassette sub-family C member 9 (Mus musculus) (UniProt P70170)
[3] = target: ATP-binding cassette sub-family F member 2 (Mus musculus) (UniProt Q99LE6)
[4] = target: ATP-sensitive inward rectifier potassium channel 11 (Mus musculus) (UniProt Q61743)
[5] = target: ATPase family AAA domain-containing protein 3 (Mus musculus) (UniProt Q925I1)
[6] = target: Acetyl-CoA acetyltransferase, mitochondrial (Mus musculus) (UniProt Q8QZT1)
[7] = target: Ankyrin-1 (Mus musculus) (UniProt Q02357)
[8] = target: Ankyrin-2 (Mus musculus) (UniProt Q8C8R3)
[9] = target: Ankyrin-3 (Mus musculus) (UniProt G5E8K5)
[10] = target: Band 3 anion transport protein (Mus musculus) (UniProt P04919)
[11] = target: Basigin (Mus musculus) (UniProt P18572)
[12] = target: C-1-tetrahydrofolate synthase, cytoplasmic (Mus musculus) (UniProt Q922D8)
[13] = target: CDP-diacylglycerol--inositol 3-phosphatidyltransferase (Mus musculus) (UniProt Q8VDP6)
[14] = target: Carboxypeptidase N catalytic chain (Mus musculus) (UniProt Q9JJN5)
[15] = target: Chloride channel protein 1 (Mus musculus) (UniProt Q64347)
[16] = target: Coatomer subunit epsilon (Mus musculus) (UniProt O89079)
[17] = target: Cullin-2 (Mus musculus) (UniProt Q9D4H8)
[18] = target: DNA replication licensing factor MCM2 (Mus musculus) (UniProt P97310)
[19] = target: EH domain-containing protein 2 (Mus musculus) (UniProt Q8BH64)
[20] = target: F-box only protein 40 (Mus musculus) (UniProt P62932)
[21] = target: Ferrochelatase, mitochondrial (Mus musculus) (UniProt P22315)
[22] = target: Glutamate dehydrogenase 1, mitochondrial (Mus musculus) (UniProt P26443)
[23] = target: Glutathione S-transferase LANCL1 (Mus musculus) (UniProt O89112)
[24] = target: Haloacid dehalogenase-like hydrolase domain-containing protein 2 (Mus musculus) (UniProt Q3UGR5)
[25] = target: Long-chain specific acyl-CoA dehydrogenase, mitochondrial (Mus musculus) (UniProt P51174)
[26] = target: Medium-chain specific acyl-CoA dehydrogenase, mitochondrial (Mus musculus) (UniProt P45952)
[27] = target: NEDD8-conjugating enzyme Ubc12 (Mus musculus) (UniProt P61082)
[28] = target: Nesprin-2 (Mus musculus) (UniProt Q6ZWQ0)
[29] = target: Obg-like ATPase 1 (Mus musculus) (UniProt Q9CZ30)
[30] = target: Plasma membrane calcium-transporting ATPase 1 (Mus musculus) (UniProt G5E829)
[31] = target: Proliferation-associated protein 2G4 (Mus musculus) (UniProt P50580)
[32] = target: Ran GTPase-activating protein 1 (Mus musculus) (UniProt P46061)
[33] = target: Splicing factor 3A subunit 1 (Mus musculus) (UniProt Q8K4Z5)
[34] = target: Sulfide:quinone oxidoreductase, mitochondrial (Mus musculus) (UniProt Q9R112)
[35] = target: Translocation protein SEC62 (Mus musculus) (UniProt Q8BU14)
[36] = target: U2 small nuclear ribonucleoprotein B″ (Mus musculus) (UniProt Q9CQI7)
[37] = target: Vitamin K-dependent protein C (Mus musculus) (UniProt P33587)
[38] = target: Voltage-dependent L-type calcium channel subunit alpha-1s (Mus musculus) (UniProt Q02789)

Chain of DNA replication licensing factor MCM2 (Mus musculus) (P97310 2-904 limits assumed): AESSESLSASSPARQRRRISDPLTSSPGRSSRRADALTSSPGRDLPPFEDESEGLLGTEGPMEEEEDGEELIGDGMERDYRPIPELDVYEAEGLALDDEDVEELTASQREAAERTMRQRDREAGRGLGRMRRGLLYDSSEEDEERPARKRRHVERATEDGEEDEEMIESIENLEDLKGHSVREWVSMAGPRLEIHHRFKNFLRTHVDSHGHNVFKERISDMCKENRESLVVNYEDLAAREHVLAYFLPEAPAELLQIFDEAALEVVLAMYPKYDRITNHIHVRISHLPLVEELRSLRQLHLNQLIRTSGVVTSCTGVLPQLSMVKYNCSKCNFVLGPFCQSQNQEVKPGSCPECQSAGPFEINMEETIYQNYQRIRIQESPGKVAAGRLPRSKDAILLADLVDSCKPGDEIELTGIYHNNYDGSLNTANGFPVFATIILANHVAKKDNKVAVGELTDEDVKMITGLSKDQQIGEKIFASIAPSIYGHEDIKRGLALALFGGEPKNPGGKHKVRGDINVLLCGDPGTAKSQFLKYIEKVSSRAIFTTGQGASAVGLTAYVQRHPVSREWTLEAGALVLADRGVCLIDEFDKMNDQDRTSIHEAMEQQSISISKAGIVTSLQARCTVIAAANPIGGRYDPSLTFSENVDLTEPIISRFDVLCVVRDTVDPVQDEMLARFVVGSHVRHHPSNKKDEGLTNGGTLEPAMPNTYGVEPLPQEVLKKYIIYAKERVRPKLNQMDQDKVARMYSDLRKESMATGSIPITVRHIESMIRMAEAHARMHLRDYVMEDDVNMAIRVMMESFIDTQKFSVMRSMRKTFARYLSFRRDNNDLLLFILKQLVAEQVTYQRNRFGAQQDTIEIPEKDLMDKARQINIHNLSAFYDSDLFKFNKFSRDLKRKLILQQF
Chain of Obg-like ATPase 1 (Mus musculus) (Q9CZ30 whole entry): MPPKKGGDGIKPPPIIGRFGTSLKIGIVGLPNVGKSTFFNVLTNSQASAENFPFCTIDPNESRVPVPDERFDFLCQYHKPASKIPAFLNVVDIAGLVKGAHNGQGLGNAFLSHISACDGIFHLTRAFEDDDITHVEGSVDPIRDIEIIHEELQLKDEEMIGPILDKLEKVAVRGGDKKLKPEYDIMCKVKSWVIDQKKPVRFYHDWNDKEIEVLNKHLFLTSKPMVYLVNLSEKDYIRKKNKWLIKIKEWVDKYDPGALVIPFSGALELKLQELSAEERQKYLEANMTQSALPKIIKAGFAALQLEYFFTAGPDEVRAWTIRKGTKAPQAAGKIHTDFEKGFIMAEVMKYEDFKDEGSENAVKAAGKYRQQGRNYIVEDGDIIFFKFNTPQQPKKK
Chain of Vitamin K-dependent protein C (Mus musculus) (P33587 42-460 limits assumed): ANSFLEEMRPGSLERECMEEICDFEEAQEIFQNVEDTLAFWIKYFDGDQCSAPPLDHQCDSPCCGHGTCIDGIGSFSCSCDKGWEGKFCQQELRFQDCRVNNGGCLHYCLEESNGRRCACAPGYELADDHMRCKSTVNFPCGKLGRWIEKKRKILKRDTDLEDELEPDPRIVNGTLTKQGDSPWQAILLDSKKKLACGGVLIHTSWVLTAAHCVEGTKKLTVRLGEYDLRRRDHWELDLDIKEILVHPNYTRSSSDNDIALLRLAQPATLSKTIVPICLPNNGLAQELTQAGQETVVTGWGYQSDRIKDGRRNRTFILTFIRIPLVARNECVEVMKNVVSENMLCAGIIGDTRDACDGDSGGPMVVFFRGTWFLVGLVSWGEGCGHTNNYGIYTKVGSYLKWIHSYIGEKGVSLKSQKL
Chain of Long-chain specific acyl-CoA dehydrogenase, mitochondrial (Mus musculus) (P51174 31-430 limits assumed): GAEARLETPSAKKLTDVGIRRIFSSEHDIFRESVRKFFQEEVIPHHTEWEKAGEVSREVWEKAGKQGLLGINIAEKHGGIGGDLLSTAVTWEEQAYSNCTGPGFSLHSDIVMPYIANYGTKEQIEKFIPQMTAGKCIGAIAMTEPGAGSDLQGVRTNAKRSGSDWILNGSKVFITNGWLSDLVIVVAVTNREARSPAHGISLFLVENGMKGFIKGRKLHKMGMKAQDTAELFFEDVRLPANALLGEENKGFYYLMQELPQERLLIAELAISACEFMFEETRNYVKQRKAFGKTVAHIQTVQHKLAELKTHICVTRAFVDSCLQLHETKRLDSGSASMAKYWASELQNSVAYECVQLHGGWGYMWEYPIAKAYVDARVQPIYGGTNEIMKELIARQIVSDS
Chain of Plasma membrane calcium-transporting ATPase 1 (Mus musculus) (G5E829 2-1220 limits assumed): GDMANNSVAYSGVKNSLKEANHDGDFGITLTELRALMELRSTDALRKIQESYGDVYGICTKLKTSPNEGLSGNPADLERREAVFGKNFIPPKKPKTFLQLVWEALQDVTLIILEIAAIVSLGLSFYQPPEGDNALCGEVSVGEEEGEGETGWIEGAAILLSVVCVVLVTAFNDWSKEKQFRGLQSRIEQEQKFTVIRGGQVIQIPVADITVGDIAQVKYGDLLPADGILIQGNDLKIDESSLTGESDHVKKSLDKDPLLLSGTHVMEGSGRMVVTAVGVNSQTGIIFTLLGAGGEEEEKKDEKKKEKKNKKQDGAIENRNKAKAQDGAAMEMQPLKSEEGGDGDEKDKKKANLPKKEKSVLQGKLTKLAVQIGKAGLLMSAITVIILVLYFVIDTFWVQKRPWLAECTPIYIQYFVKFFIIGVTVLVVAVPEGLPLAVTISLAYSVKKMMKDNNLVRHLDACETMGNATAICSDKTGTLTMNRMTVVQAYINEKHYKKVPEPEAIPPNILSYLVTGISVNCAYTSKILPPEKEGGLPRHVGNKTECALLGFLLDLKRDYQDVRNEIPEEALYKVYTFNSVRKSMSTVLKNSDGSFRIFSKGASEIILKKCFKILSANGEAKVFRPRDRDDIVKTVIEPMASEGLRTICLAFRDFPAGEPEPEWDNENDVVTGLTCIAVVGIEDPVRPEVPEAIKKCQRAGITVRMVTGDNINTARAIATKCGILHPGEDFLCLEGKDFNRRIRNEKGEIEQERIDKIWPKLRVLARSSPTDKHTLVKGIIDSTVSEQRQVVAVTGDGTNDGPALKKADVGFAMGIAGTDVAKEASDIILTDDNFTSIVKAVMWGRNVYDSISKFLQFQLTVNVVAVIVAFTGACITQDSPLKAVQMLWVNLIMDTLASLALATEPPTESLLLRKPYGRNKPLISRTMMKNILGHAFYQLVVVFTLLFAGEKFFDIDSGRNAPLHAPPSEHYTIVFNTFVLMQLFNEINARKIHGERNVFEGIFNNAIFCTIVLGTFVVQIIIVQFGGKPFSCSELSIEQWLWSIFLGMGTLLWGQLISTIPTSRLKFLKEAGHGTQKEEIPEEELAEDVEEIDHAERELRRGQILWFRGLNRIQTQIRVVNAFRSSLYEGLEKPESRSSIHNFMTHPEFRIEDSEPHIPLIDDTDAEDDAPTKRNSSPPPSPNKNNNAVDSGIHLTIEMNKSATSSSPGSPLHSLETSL
Chain of Chloride channel protein 1 (Mus musculus) (Q64347 whole entry): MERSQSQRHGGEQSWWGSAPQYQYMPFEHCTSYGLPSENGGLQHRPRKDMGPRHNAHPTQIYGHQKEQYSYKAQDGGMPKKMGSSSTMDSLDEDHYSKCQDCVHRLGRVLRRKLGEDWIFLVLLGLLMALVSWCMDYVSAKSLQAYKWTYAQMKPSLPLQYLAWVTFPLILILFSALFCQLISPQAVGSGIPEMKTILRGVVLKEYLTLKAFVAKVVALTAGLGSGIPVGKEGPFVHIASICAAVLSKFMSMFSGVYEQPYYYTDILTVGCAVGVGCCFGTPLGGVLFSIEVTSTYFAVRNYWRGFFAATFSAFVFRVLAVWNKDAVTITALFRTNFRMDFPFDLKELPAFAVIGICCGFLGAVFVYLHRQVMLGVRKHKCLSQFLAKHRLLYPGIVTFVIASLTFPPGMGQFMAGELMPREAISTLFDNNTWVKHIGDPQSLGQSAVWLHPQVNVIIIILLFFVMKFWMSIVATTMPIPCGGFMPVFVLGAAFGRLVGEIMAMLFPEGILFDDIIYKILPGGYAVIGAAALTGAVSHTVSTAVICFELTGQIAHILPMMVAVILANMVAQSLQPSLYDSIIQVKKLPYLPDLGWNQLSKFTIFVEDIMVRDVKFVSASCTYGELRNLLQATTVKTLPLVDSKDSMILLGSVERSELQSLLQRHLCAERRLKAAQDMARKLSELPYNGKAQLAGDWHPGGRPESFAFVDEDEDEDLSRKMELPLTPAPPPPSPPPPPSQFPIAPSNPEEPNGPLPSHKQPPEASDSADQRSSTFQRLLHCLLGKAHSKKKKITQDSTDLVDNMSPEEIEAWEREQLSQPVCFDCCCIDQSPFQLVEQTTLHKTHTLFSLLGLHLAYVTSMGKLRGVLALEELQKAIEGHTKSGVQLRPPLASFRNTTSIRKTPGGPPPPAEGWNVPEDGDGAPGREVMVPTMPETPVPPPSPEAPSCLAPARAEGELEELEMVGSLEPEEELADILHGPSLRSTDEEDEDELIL
Chain of Haloacid dehalogenase-like hydrolase domain-containing protein 2 (Mus musculus) (Q3UGR5 whole entry, the tested form may be a part): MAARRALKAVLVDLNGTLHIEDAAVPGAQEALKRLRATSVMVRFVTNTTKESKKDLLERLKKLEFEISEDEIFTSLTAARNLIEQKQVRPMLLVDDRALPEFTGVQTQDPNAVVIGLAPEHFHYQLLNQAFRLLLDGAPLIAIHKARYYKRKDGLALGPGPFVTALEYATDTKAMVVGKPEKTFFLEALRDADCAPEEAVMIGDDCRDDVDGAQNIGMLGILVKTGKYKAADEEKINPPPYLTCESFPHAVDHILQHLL
Chain of human BVES fused with 3xHA tag (Q8NE79 other isoform, or with tags, fused parts or gaps limits assumed): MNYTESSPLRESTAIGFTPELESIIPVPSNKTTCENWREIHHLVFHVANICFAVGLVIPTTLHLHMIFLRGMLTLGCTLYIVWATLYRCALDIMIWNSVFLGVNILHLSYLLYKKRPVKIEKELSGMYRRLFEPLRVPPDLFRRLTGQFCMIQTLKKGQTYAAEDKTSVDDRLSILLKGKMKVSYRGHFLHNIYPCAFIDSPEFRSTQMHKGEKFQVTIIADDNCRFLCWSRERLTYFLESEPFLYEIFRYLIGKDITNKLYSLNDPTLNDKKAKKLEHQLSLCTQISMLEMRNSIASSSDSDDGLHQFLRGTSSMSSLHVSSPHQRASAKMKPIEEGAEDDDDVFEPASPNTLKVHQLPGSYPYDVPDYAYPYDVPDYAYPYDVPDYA

## human BVES fused with 3xHA tag (from UniProt Q8NE79 1-360)
[1]
  AAV9-BVES-HA (IP-MS count): 2
[2]
  AAV9-BVES-HA (IP-MS count): 14
[3]
  AAV9-BVES-HA (IP-MS count): 2
[4]
  AAV9-BVES-HA (IP-MS count): 4
[5]
  AAV9-BVES-HA (IP-MS count): 3
[6]
  AAV9-BVES-HA (IP-MS count): 5
[7]
  AAV9-BVES-HA (IP-MS count): 31
[8]
  AAV9-BVES-HA (IP-MS count): 36
[9]
  AAV9-BVES-HA (IP-MS count): 242
[10]
  AAV9-BVES-HA (IP-MS count): 4
[11]
  AAV9-BVES-HA (IP-MS count): 4
[12]
  AAV9-BVES-HA (IP-MS count): 2
[13]
  AAV9-BVES-HA (IP-MS count): 2
[14]
  AAV9-BVES-HA (IP-MS count): 4
[15]
  AAV9-BVES-HA (IP-MS count): 13
[16]
  AAV9-BVES-HA (IP-MS count): 2
[17]
  AAV9-BVES-HA (IP-MS count): 3
[18]
  AAV9-BVES-HA (IP-MS count): 4
[19]
  AAV9-BVES-HA (IP-MS count): 6
[20]
  AAV9-BVES-HA (IP-MS count): 2
[21]
  AAV9-BVES-HA (IP-MS count): 2
[22]
  AAV9-BVES-HA (IP-MS count): 6
[23]
  AAV9-BVES-HA (IP-MS count): 2
[24]
  AAV9-BVES-HA (IP-MS count): 3
[25]
  AAV9-BVES-HA (IP-MS count): 4
[26]
  AAV9-BVES-HA (IP-MS count): 2
[27]
  AAV9-BVES-HA (IP-MS count): 2
[28]
  AAV9-BVES-HA (IP-MS count): 2
[29]
  AAV9-BVES-HA (IP-MS count): 2
[30]
  AAV9-BVES-HA (IP-MS count): 34
[31]
  AAV9-BVES-HA (IP-MS count): 7
[32]
  AAV9-BVES-HA (IP-MS count): 2
[33]
  AAV9-BVES-HA (IP-MS count): 4
[34]
  AAV9-BVES-HA (IP-MS count): 3
[35]
  AAV9-BVES-HA (IP-MS count): 2
[36]
  AAV9-BVES-HA (IP-MS count): 2
[37]
  AAV9-BVES-HA (IP-MS count): 2
[38]
  AAV9-BVES-HA (IP-MS count): 13
